Columns and labels:
[1] = molecular target: T1, Human PD-1-His protein (Cat. #10377H08H, Sino Biological) (human, UniProt Q15116 25-167); assay: SPR (Biacore), antibody captured on Protein A chip, PD-1 in flow
T1 construct: Bought protein; also called hPD-1-His; hu PD-1-his; not shown: His tag of the bought protein
Text: (§1) IgG was affinity captured by using a Protein A biosensor chip (Cat. #29127556, GE). Human PD-1 antigen (Cat. #10377H08H, Sino Biological) and Cyno PD-1 antigen (purchased from Sino Biological) flowed across the surface of the chip, and the binding and dissociation curves were obtained by real time detection of PD-1 antibody and antigen PD-1 reaction signals by a Biacore T200 instrument. After the dissociation of each experimental cycle was completed, the biosensor chip was washed and regenerated with 10 mM Glycine-HCl pH 1.5 buffer. The experimental buffer system was 1×HBS-EP buffer solution (Cat #BR-1001-88, GE). After the experiment, GE Biacore T200 Evaluation version 3.0 software was used to fit the data with a (1:1) Langmuir model, and the affinity value was obtained.

[2] = molecular target: T1, Human PD-1-His protein (Cat. …); assay: SPR (Biacore T200), antibody captured on Protein A chip, antigen in flow, 1:1 Langmuir
Text: as §1

[3] = molecular target: T2, Cyno PD-1 antigen (purchased from Sino Biological) (cynomolgus monkey (Cyno; simian), UniProt B0LAJ3 25-170); assay: as above
T2 construct: Bought protein, construct not described; also called simian PD-1; not shown: Tag or carrier of the Sino Biological product (probably a His tag)
Text: as §1

[4] = molecular target: T3, Human PD-1-IgG1Fc fusion protein (human); assay: competition ELISA, PD-1-Fc coated, competitor biotin-labeled PD-L2
T3 construct: also called PD-1-Fc; Hu PD-1-Fc
Protocol: (§2) CB buffer pH 9.6 (1.59 g Na₂CO₃ and 2.93 g NaHCO₃ dissolved in 1 L distilled water) was used to dilute PD-1-Fc to 1 μg/ml, which was added to the 96-well plates at a volume of 100 μl/well and allowed to stand at 4° C. for 16 h-20 h. PBS buffer was aspirated from the 96-well plates, and the plates were washed with PBST (pH 7.4 PBS containing 0.05% tween20) buffer once. 120 μl/well PB ST/1% milk was added and incubated at room temperature for 1 h for blocking. The blocking solution was removed and the plates were washed with PBST buffer once. 90 μl anti-PD-1 antibody to be tested diluted to appropriate concentration with the sample diluent (pH 7.4 PBS containing 5% BSA, 0.05% Tween20) was added and pre-incubated at 4° C. for 1 h. […] The reaction system was removed and the plates were washed with PBST 6 times. 100 μl/well Streptavidin-Peroxidase Polymer 1:400 diluted with PBST buffer was added and incubated with shaking at room temperature for 50 min. The plates were washed with PBST 6 times. 100 μl/well TMB was added and incubated at room temperature for 5-10 min. 100 μl/well 1 M H₂SO₄ was added to stop the reaction.

[5] = molecular target: T1, Human PD-1-His protein (Cat. …); assay: ELISA, PD-1-His coated, HRP anti-human IgG detection
[6] = molecular target: T3, Human PD-1-IgG1Fc fusion protein; assay: competition ELISA, PD-1-Fc coated, competitor biotin-labeled PD-L1
Protocol: as §2

B1: Hu23-11.IgG4AA (antibody, V domains shown)
VH: EVQLVQSGAEVKKPGSSVKVSCKASGGTFSDYEMHWVRQAPGQGLEWMGLIDPETGGTVYNQKFKDRVTITADKSTSTAYMELSSLRSEDTAVYYCARERFSYYGSTSDWYFDVWGQGTTVTVSS
VL: DIVMTQTPLSLPVTPGEPASISCRSSQSLVHSTGNTYLEWYLQKPGQSPQLLIYKVSNRFSGVPDRFSGSGSGTDFTLKISRVEAEDVGVYYCFQGSHVPYTFGGGTKVEIKR
notes: Full-length IgG4-AA, kappa; also called Hu23LCDR1 (N28T)
- Kd [1]: 2.71 nM
- koff [1]: 0.000114 s⁻¹
- kon [1]: 42200 M⁻¹ s⁻¹
- Kd [2]: 1.86 nM
- koff [2]: 0.000113 s⁻¹
- kon [2]: 60600 M⁻¹ s⁻¹
- Kd [3]: 2.62 nM
- koff [3]: 0.000126 s⁻¹
- kon [3]: 47900 M⁻¹ s⁻¹
- IC50 [4]: 0.245 µg/mL
- EC50 [5]: 0.237 µg/mL
- OD value MAX [5]: 1.46 OD
- IC50 [6]: 0.0924 µg/mL

B2: Hu32a-85.IgG4AA (antibody, V domains shown)
VH: EVQLVQSGAEVKKPGSSVKVSCKASDFTFTDYEIHWVKQAPGHGLEWIGLFDPETGGIVYNQKFKGKATLTADKSTSTAYMEFSSLRSEDTAVYYCTREGYNRDWYFDVWGQGTTVTVSS
VL: B1 VL
notes: Full-length IgG4-AA, kappa
- Kd [1]: 3.18 nM
- koff [1]: 0.000315 s⁻¹
- kon [1]: 99000 M⁻¹ s⁻¹
- Kd [2]: 3.25 nM
- koff [2]: 0.000278 s⁻¹
- kon [2]: 85600 M⁻¹ s⁻¹
- Kd [3]: 4.11 nM
- koff [3]: 0.000475 s⁻¹
- kon [3]: 116000 M⁻¹ s⁻¹
- IC50 [4]: 0.206 µg/mL
- EC50 [5]: 0.136 µg/mL
- OD value MAX [5]: 1.26 OD
- IC50 [6]: 0.0786 µg/mL

B3: H005-1 (positive control anti-PD-1 antibody, see H005-1 antibody in WO2015085847) (antibody, V domains shown)
VH: EVQLVESGGGLVQPGGSLRLSCAASGFTFSSYMMSWVRQAPGKGLEWVATISGGGANTYYPDSVKGRFTISRDNAKNSLYLQMNSLRAEDTAVYYCARQLYYFDYWGQGTTVTVSS
VL: DIQMTQSPSSLSASVGDRVTITCLASQTIGTWLTWYQQKPGKAPKLLIYTATSLADGVPSRFSGSGSGTDFTLTISSLQPEDFATYYCQQVYSIPWTFGGGTKVEIKR
- IC50 [4]: 0.225 µg/mL
- EC50 [5]: 0.113 µg/mL
- OD value MAX [5]: 1.21 OD
- IC50 [6]: 0.11 µg/mL

Reference: US20220098304A1 (JIANGSU HENGRUI MEDICINE, published 2022)
